Source: paper PMC3906306 (mAbs, 2013)

Tests used:
[1] = biological target: EGFR extracellular domain-Cλ fusion protein (Homo sapiens) (UniProt P00533); assay: SPR
[2] = biological target: EGFR extracellular domain-Cλ fusion protein (Homo sapiens, UniProt P00533); assay: SPR

| Molecule | Kd [1] | Kd [2] |
| --- | --- | --- |
| hu225 VH:F100cY (antibody) | 4 nM | – |
| hu225 VH:Y32R (antibody) | 6.8 nM | – |
| hu225 VH:V50L (antibody) | 3.1 nM | – |
| hu225 VH:T57G (antibody) | 3.9 nM | – |
| hu225 VL:G30Y (antibody, V domains shown) VH: EVQLVESGGGLVQPGGSLRLSCAASGFSLTNYGVHWVRQAPGKGLEWLGVIWSGGNTDYNTPFTSRLTINKDNSKNTVYLQMNSLRAEDTAVYYCARALTYYDYEFAYWGQGTLVTVSS VL: DILLTQSPGTLSLSPGERATLSCRASQSIYTNIHWYQQKPGQAPRLLIKYASESISGIPDRFSGSGSGTDFTLTISRLEPEDFAVYYCQQNNNWPTTFGQGTKLEIK | – | 1.8 nM |

The next lines start with the values.

| Kd [1] | Kd [2] | Molecule |
| --- | --- | --- |
| 1.9 nM | – | hu225 VH:G33D (antibody) |
| 1.6 nM | – | hu225 VH:T97D (antibody) |
| 3 nM | – | hu225 VL:A25V (antibody) |
